Columns and labels:
[1] = molecular target: AtBAG5/Hsc70 complex (AtBAG5-long/Hsp70) (Arabidopsis thaliana | human) (UniProt O65373); assay: ITC; iTC200, room temperature, 20 mM Tris-HCl pH 7.5, 500 mM NaCl, 5 mM EGTA (apo-CaM, absence of calcium); 0.05-0.1 mM in the cell, 0.5-1.0 mM in the syringe
[2] = molecular target: AtBAG5/Hsc70 complex (AtBAG5-long/Hsp70) (Arabidopsis thaliana | human) (UniProt O65373); assay: ITC; iTC200, room temperature, 20 mM Tris-HCl pH 7.5, 500 mM NaCl, 10 mM CaCl2 (holo-CaM, presence of calcium); 0.05-0.1 mM in the cell, 0.5-1.0 mM in the syringe

Calmodulin (CaM) (from UniProt P0DP23 1-149) (natural protein)
Kd [1]: 0.39 µM
Kd [2]: 21.2 µM

— paper PMC4990970
